Biological target: Mac-1 (CD11b/CD18) integrin receptor on primary mouse microglia (mouse) (UniProt P05555)
Experiment: cell-based or functional assay

Sequence of Mac-1 (CD11b/CD18) integrin receptor on primary mouse microglia (mouse) (P05555 17-1153, chain 1 of 2): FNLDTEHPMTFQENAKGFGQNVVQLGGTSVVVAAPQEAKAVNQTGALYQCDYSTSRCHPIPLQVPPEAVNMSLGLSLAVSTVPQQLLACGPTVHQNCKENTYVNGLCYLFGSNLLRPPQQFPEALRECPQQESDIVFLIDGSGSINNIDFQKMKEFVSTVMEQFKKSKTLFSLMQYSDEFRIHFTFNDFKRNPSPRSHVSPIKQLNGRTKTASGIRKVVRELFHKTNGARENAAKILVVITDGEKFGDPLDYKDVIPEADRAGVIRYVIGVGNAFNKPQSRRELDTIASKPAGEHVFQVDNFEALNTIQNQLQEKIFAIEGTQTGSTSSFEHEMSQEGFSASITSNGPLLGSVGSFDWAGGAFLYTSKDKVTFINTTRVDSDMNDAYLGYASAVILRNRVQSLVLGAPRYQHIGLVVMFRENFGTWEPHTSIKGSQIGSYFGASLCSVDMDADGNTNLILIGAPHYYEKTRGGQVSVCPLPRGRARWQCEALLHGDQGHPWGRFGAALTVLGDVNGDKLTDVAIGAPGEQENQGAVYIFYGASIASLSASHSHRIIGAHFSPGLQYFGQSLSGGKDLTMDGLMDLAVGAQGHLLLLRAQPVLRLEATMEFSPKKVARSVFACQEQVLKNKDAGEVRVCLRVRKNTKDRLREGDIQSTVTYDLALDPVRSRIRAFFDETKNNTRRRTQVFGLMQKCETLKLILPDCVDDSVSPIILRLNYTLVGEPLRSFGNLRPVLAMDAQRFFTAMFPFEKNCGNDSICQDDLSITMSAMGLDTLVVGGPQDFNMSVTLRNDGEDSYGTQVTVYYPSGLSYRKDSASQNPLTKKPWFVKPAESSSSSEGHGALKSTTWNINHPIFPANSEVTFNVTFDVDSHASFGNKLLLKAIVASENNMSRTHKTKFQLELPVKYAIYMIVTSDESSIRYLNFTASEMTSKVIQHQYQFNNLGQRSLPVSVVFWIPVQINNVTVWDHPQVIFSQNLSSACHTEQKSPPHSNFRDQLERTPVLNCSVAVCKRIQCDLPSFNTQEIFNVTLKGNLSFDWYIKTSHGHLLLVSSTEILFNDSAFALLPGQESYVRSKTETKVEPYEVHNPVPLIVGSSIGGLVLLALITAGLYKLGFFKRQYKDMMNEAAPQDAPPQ
Sequence of Mac-1 (CD11b/CD18) integrin receptor on primary mouse microglia (mouse) (P11835 24-771, chain 2 of 2, further chain): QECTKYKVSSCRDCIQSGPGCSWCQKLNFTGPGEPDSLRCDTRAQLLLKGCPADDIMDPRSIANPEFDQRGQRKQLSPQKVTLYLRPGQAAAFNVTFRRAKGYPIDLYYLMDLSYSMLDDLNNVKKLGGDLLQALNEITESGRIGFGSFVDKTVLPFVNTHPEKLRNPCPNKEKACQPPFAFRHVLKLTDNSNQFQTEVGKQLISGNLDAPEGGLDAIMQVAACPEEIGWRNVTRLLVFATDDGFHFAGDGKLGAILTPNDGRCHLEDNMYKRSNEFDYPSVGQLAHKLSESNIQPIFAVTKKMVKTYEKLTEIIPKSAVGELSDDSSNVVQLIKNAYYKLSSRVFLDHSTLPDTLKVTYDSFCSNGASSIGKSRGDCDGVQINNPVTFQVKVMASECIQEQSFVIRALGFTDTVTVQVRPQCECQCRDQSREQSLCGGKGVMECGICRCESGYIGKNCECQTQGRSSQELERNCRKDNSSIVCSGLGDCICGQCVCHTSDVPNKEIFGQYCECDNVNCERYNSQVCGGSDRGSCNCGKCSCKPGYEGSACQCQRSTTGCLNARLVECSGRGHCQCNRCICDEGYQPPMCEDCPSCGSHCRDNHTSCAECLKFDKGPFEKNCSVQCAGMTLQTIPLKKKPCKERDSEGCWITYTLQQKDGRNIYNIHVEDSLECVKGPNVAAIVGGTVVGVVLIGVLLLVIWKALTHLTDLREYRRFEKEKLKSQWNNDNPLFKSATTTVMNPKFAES

Akt phosphorylation in microglia (Western blot) [fold] | activated microglia (cells larger than 2,000 um^2), fibrinogen treated cells (% of activated microglia) | activated microglia, fibrinogen treatment (% of activated microglia) | active RhoA in microglia (GST-Rhotekin pull-down, Western blot) [fold] | activated microglia (cells larger than 2,000 um^2), fibrinogen in the presence of M1/70 (% of activated microglia) | phagocytosis of fibrinogen-treated microglia [% reduction] | Substance
24 | 71 | 71 | 1.9 | – | – | fibrinogen (Calbiochem), immobilized on tissue culture dishes (ligand)
– | – | – | – | 18 | 40 | M1/70, rat anti-CD11b neutralizing antibody

— patent US20110166075A1
